Numbering of substitutions follows the chain as printed. Several values for one entry are separate records, joined by “and”; a condition that tells them apart may be missing. Equal values may be shown once. Read-outs that look alike come from different tables or passages of the source. One block for each binder: values may come before it.
Tests used:
[1] = target: T1, Human OSM (human, UniProt P13725 26-221); assay: BIAcore kinetics
T1 construct: Recombinant human OSM; also called hOSM; human Oncostatin M
T1 sequence: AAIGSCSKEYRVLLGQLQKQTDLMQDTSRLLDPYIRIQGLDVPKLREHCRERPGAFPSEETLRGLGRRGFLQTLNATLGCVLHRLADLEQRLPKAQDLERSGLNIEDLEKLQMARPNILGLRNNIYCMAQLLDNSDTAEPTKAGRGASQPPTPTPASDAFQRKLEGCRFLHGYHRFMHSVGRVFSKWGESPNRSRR

[2] = target: T2, Cynomolgus OSM (cynomolgus, UniProt A0A2K5VPC6 26-221); assay: BIAcore kinetics
T2 construct: also called Cyno OSM; cynomolgus macaque OSM
T2 sequence: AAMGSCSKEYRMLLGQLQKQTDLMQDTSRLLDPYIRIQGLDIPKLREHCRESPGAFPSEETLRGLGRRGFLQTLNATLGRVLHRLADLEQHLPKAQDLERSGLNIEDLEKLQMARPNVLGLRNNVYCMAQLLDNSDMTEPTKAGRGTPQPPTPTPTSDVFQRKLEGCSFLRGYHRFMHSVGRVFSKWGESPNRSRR

[3] = target: T1, Human OSM; assay: cell-based or functional assay
[4] = target: T2, Cynomolgus OSM; assay: cell-based or functional assay
[5] = target: T1, Human OSM; assay: human gp130 ELISA, inhibition of OSM binding to gp130
[6] = target: T2, Cynomolgus OSM; assay: as above
[7] = target: T3, Endogenous human OSM (neutrophil-derived) (human, UniProt P13725 26-221, limits assumed); assay: gp130 ELISA with endogenous neutrophil-derived human OSM
T3 construct: Native OSM generated from GM-CSF stimulation of healthy human neutrophils; also called native OSM; endogenous OSM
T3 sequence: T1 sequence

[8] = target: T1, Human OSM; assay: direct ELISA, human OSM coated at 1 µg/ml, detection with anti-human IgG
Method: Both the 10G8 and 9G2 chimaeras successfully bound to human OSM, to a greater extent than 15E10chimera (15E10c) (FIG. 11). This was a direct ELISA where human OSM was coated at 1 μg/ml and bound antibodies detected using anti-human IgG.

[9] = target: T1, Human OSM; assay: BIAcore kinetics; remark: listed apart in the source
[10] = target: T2, Cynomolgus OSM; assay: BIAcore kinetics; remark: listed apart in the source
[11] = target: T1, Human OSM; assay: cell-based or functional assay; remark: listed apart in the source
[12] = target: T2, Cynomolgus OSM; assay: cell-based or functional assay; remark: listed apart in the source
[13] = target: Marmoset OSM (marmoset); assay: cell-based or functional assay
[14] = target: T1, Human OSM; assay: human gp130 ELISA, inhibition of OSM binding to gp130; remark: listed apart in the source
[15] = target: T2, Cynomolgus OSM; assay: as above; remark: listed apart in the source

Kd [1]: 1.33 nM
koff [1]: 0.000168 s⁻¹
kon [1]: 126000 M⁻¹ s⁻¹
Kd [2]: 0.787 nM
koff [2]: 9.99e-05 s⁻¹
kon [2]: 127000 M⁻¹ s⁻¹
KB cell neutralisation assay, mean IC50 [3]: 0.231 µg/ml and 1.5 nM
KB cell neutralisation assay, mean IC50 [4]: 0.031 µg/ml and 207 pM
IC50 [5]: 0.078 µg/mL and 0.52 nM
IC50 [6]: 0.028 µg/mL and 0.187 nM
IC50 [7]: 0.017 µg/mL and 0.113 nM
EC50 (read off the curve) [8]: ~0.4 nM
B1: 9G2 chimaera (antibody, human IgG1, kappa, V domains shown)
VH: EVQLVESGGGLVEPGGSLKLSCAASGFTFSNYAMSWVRQTPEKRLEWVATISDGGSFTYYLDNVKGRFTISRDNAKNNLYLQMSHLKSDDTAMYYCARDVGHTTFWYFDVWGTGTLVTVSS
VL: DIVLTQSPVFLVISLGQRATISCRASKSVSASGYNFMHWYQQKPGQPPKVLIKYASNLESGVPARFSGSGSGTDFTLNIHPVEEEDAVTYYCQHSREFPFTFGGGTKLEIKR
notes: Mouse V regions on human gamma 1 wild type and human kappa constant regions; also called 9G2 chimera

Kd [9]: 2.09 nM
Kd [10]: 9.31 nM
KB cell neutralisation assay, mean IC50 [11]: 0.049 µg/ml and 327 pM
KB cell neutralisation assay, mean IC50 [12]: 0.344 µg/ml and 2.3 nM
IC50 (read off the curve); IL-6 release from KB cells stimulated with marmoset OSM [13]: ~0.05 µg/mL
IC50 [14]: 0.08 µg/mL and 0.533 nM
IC50 [15]: 0.14 µg/mL and 0.993 nM
B2: 2B7, murine anti-OSM mAb (antibody, V domains shown)
VH: B1 VH with E13K, S56G, F57Y, V64G, K65Q, D89E, H102L, L116T
VL: DIVLTQSPVSLVISLGQRATISCRASKSVSPSSYNFMHWYQQRPGQPPKLLITYASNLESGVPARFSGSGSGTDFTLNIHPVEEEDAATYYCQHSREFPFTFGGGTRLEIK
notes: Mouse hybridoma mAb; also called 2B7/A6; 2B7.A6

Source: US20130251724A1 (GlaxoSmithKline, published 2013)
